Test results: publication PMC2975025 (Developmental cell, 2010)
Substitutions are numbered along the chain they refer to.

T1: KR-mutant CHC hub (K1163E and R1165D) (bovine, UniProt P49951 1074-1675, K1163E | R1165D)
T1 sequence (looked up): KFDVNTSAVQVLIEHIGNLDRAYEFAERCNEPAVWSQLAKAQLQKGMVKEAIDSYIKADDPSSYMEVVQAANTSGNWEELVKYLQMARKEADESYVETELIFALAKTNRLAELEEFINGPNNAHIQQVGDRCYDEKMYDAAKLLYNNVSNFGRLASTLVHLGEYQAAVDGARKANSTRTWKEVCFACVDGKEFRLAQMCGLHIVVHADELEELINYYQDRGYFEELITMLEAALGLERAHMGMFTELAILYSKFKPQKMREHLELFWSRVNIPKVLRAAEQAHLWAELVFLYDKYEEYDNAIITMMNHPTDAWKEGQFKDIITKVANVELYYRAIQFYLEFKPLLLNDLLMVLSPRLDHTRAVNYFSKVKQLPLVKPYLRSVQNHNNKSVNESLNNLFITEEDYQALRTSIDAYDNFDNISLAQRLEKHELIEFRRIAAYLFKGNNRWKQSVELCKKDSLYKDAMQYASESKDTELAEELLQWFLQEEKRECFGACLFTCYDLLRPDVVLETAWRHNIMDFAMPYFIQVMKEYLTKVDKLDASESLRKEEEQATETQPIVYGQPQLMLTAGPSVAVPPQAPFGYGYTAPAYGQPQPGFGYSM

B1: Bovine clathrin heavy chain residues 1074–1675 (hub), wild type (domain or fragment, UniProt P49951 1074-1675, looked up)
chain: T1 sequence (looked up) with E90K, D92R
B2: Human neuronal LCb, his-tagged fusion protein, wild type (natural protein, UniProt P09497 1-229, looked up)
chain: MADDFGFFSSSESGAPEAAEEDPAAAFLAQQESEIAGIENDEGFGAPAGSHAAPAQPGPTSGAGSEDMGTTVNGDVFQEANGPADGYAAIAQADRLTQEPESIRKWREEQRKRLQELDAASKVTEQEWREKAKKDLEEWNQRQSEQVEKNKINNRIADKAFYQQPDADIIGYVASEEAFVKESKEETPGTEWEKVAQLCDFNPKSSKQCKDVSRLRSVLMSLKQTPLSR

Legend:
crystal structure = biological target: the molecule itself; experiment: crystal structure
[1] = biological target: B1; experiment: SPR
[2] = biological target: T1, KR-mutant CHC hub (K1163E and R1165D); experiment: SPR

Binder | stoichiometry N (crystal structure) | Kd [1] | Kd [2]
B1 | 3 | – | –
B2 | – | 25 nM | 59.1 nM
